Results taken from doi:10.1101/2020.04.30.070086 (bioRxiv, 2020).

Molecular target: T1, keratin 1 (K1) (UniProt P04104 1-637)
T1 sequence (looked up): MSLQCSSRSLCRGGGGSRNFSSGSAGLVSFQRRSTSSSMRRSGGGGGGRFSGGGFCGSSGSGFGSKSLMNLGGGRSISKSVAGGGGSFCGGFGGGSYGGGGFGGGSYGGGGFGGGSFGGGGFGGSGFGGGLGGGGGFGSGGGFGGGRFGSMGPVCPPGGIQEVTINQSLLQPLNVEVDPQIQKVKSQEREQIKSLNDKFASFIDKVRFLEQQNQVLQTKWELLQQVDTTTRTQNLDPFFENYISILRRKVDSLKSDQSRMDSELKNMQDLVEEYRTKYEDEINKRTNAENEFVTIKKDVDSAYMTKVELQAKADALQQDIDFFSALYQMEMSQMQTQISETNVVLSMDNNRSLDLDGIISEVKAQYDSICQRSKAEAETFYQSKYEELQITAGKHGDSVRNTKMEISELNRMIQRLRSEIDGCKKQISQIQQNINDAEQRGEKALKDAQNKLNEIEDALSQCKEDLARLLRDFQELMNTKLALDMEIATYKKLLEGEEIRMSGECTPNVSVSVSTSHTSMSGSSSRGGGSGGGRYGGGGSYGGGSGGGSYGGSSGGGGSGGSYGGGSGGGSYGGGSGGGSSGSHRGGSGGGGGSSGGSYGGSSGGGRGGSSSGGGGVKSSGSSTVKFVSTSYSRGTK
Assay: co-sedimentation

binding result: binds
B1: keratin 10 (K10), full length (natural protein, UniProt P02535-2 1-561, looked up)
chain: MSVLYSSSSKQFSSSRSGGGGGGGSVRVSSTRGSLGGGYSSGGFSGGSFSRGSSGGGCFGGSSGGYGGFGGGGSFGGGYGGSSFGGGYGGSSFGGGSFGGGGSFGGGSFGGGSYGGGFGGGGFGGDGGSLLSGNEKVTMQNLNDRLASYMDKVRALEESNYELEGKIKEWYEKHGNSSQREPRDYSKYYKTIEDLKGQILTLTTDNANVLLQIDNARLAADDFRLKYENEVTLRQSVEADINGLRRVLDELTLSKSDLEMQIESLNEELAYLKKNHEEEMRDLQNVSTGDVNVEMNAAPGVDLTQLLNNMRNQYEQLAEKNRKDAEEWFNQKSKELTTEIDSNIEQMSSHKSEITELRRTVQGLEIELQSQLALKQSLEASLAETEGRYCVQLSQIQSQISALEEQLQQIRAETECQNAEYQQLLDIKTRLENEIQTYRSLLEGEGSSSGGGGGRRGGSGGGSYGGSSGGGSYGGSSGGGGSYGGSSGGGGSYGGGSSGGGSHGGSSGGGYGGGSSSGGAGGHGGSSGGGYGGGSSSGGQGGSGGFKSSGGGDQSSKGPRY
